According to patent US20240025971A1 (ATRECA, published 2024):

How the values were obtained:
[1] = molecular target: SARS-CoV-2 Nucleocapsid (N) protein (SARS-CoV-2, UniProt P0DTC9 1-419); test: BLI
SARS-CoV-2 S1 protein = molecular target: T1, SARS-CoV-2 S1 protein (SARS-CoV-2, UniProt P0DTC2 16-685); test: BLI
T1 construct: domain: S1 protein; also called S1 monomer

SARS-CoV-2 S2 protein = molecular target: T2, SARS-CoV-2 S2 protein (SARS-CoV-2, UniProt P0DTC2 686-1213); test: BLI
T2 construct: domain: S2 protein; also called S2 monomer

[2] = molecular target: T3, SARS-CoV-2 Spike (S) trimer (SARS-CoV-2, UniProt P0DTC2 14-1208); test: ELISA, S trimer coated, 1:50 dilution
T3 construct: also called Spike trimer

[3] = molecular target: T4, SARS-CoV-2 Receptor Binding Domain (RBD) (SARS-CoV-2, UniProt P0DTC2 319-541); test: BLI
T4 construct: also called RBD protein

B1: AB-009244 (antibody, V domains shown)
VH: EVQLVESGGGLVQPGGSLRLSCAASGFAFNTYGINWVRQAPGKGLEWVSFISSRSTTIHYADSVRGRFTISRDNAKNSLYLQMNNLRDEDTAVYYCARDLLIWFGETGAFDIWGQGTMVTVSS
VL: EVVMTQSPATLSVSSGERVTLSCRASQSVSNNLAWYQQKPGQAPRLLIYGASTRATGFPARFSGSGSGTEFTLTISSLQSEDFAVYYCQQYNIWPPGTFGQGTKLEIK
notes: human IgG1
B1: no binding (tested: 300 nM) [1]; no binding (tested: 300 nM) (SARS-CoV-2 S1 protein); no binding (tested: 300 nM) (SARS-CoV-2 S2 protein).

B2: AB-009202 (antibody, V domains shown)
VH: QVQLVESGGGVVQPGRSLRLSCAASGFTFSSYGMHWVRQAPGKGLEWVAVIWYDGSNKYYADSVKGRFTISRDNSKNTLYLQMNSLRAEDTAVYYCARDGGPEYYFDYWGQGTLVTVSS
VL: SYELTQPPSVSVSPGQTARITCSGDALPKQYAYWYQQKPGQAPVLVIYKDSERPSGIPERFSGSSSGTTVTLTISGVQAEDEADYYCQSADSSGTYNVVFGGGTKLTVL
notes: human IgG1
B2: no binding (tested: 300 nM) [1]; no binding (tested: 300 nM) (SARS-CoV-2 S1 protein); no binding (tested: 300 nM) (SARS-CoV-2 S2 protein).

B3: AB-009110 (antibody, V domains shown)
VH: QVQLVQSGAEVKEPGASVKVSCNASGYIFTSYGISWVRQAPGQGLEWVGWISGNNGNTNYAQKFQGRVTLTTDTSTSTAYLELRSLTSADTGVYFCARARLPSAYWGPGTLLTVSS
VL: EILLTQSPATLSVSPGERGSLSCRASQSVGTNLAWYQQKPGQAPRLLIYGASARATGIPARFSGSGSGTEFTLTISSLQSEDFGVYYCQQYNDWPPWTFGQGTKVEIK
notes: human IgG1
With B3 the “Optical Density (OD; 450 nm)” value [2] was 0.081 OD450.

B4: AB-009083 (antibody, V domains shown)
VH: EVHLLESGGGLVQPGGSLTLTCAASGFSFGNYVMGWVRQAPGKGLEWVSSIFGSGANPHYGGSVKGRFTISRDNSQNTLFLQMDSLTAEDTAVYYCARDGGTMVGGIITGGFNYFDSWGQGTLVTVSS
VL: EIVLTQSPASLSLSPGGWATLSCRASRSIGNSLAWYQQRPGQAPRLLIYDASNRATGIPARFSGSGSGTDFTLTISSLEPEDFAIYYCQQRNSWPPLYTFGQGTKLEIK
notes: human IgG1
B4 was tested, and the “Optical Density (OD; 450 nm)” value [2] was 0.249 OD450.

B5: AB-009078 (antibody, V domains shown)
VH: QITLKESGPTLVKPTQTLTLTCTFSGFSLSTSGVGVGWIRQPPGKALEWLALIYWDDDKRYSPSLKSRLTITKDTSKNQVVLTMTNMDPVDTATYYCAHRPGDFWSGYYRYWGQGTLVTVSS
VL: not shown
notes: human IgG1
B5: no binding (tested: 300 nM) [3]; no binding (tested: 300 nM) (SARS-CoV-2 S1 protein).

B6: AB-009237 (antibody, V domains shown)
VH: QVQLLQSGAEVKKPGASVSVSCKASGFTFTSYYFHWVRQAPGQGLEWMGIVSPAGGSTNYAQKFQGRVTMTRDTSTSTVHMELRNVRYDDTAVFYCARSVYCSSPSCPHGMDVWGPGTMVTVSS
VL: DIQVTQSPSTLSASVGDRVTITCRASQSILTYLAWYQQKPGKAPNLLIYKASNLQSGVPSRFSGSGSGTEFTLTISSLQPDDFATYHCQQYKSYPFSFGQGTKLAIK
notes: human IgG1
B6: no binding (tested: 300 nM) [1]; no binding (tested: 300 nM) (SARS-CoV-2 S1 protein); no binding (tested: 300 nM) (SARS-CoV-2 S2 protein).

B7: AB-009226 (antibody, V domains shown)
VH: not shown
VL: QSALTQPASVSGSPGQSITISCTGTSSDVGGYNYVSWYQQHPGKAPKLMIYEVSNRPSGVSNRFSGSKSGNTASLTISGLQAEDEADYYCSSYTSSSTLYVFGTGTKVTVL
notes: human IgG1
In the case of B7, the “Optical Density (OD; 450 nm)” value [2] is reported as 2.33 OD450.

B8: AB-009251 (antibody, V domains shown)
V domain 1: QVQLVQSGAEVKKPGASVKVSCKTSGYTFTTFYIHWVRQVPGQGLEWMGIINPDGGSTNYAQEFQARVTMTTDTSTSTAYMELSSLRFEDTAVFYCATSLGAPPGLSPRTGPQRRGPPGFDFWGQGTLITVSA
V domain 2: QSVLTQPPSVSGAPGQRVTISCTGSSSNIGAGYDVHWYQQLPGTAPKLLIFDNNNRPSGVPYRFSGSRSGTSASLAITGLQPEDEADYYCQSYDSSLSGRVFGGGTRVTVL
notes: human IgG1
For B8, the “Optical Density (OD; 450 nm)” value [2] was 0.886 OD450, the binding result [1] was “no binding (tested: 300 nM)” and the binding result (SARS-CoV-2 S2 protein) was “no binding (tested: 300 nM)”.

B9: AB-009080 (antibody, V domains shown)
VH: QVQLQQWGAGLLKPSETLSLTCAVYGGSFSGYYWSWIRQPPGKGLEWIGEINHSGSTNYNPSLKSRVTISVDTSKNQFSLKLSSVTAADTAVYYCARGLPVTTFYYYYYGMDVWGQGTTVTVSS
VL: not shown
notes: human IgG1
B9 was tested, and the “Optical Density (OD; 450 nm)” value [2] was 0.166 OD450.

B10: AB-009239 (antibody, V domains shown)
VH: QVHLEESGGGVVQPGRSLRLSCAASGFTFSGYAMHWVRQAPGKGLAWVAVISYDGTNKYYTDSVKGRFSISRDNSNNTLYLQMNSLRTEDTALYYCARALTGYYGQFDFDSWGQGTLVTVSS
VL: DVVMTQSPLSLPVTLGQPASISCRSSQSLVHSDGHTYLNWIQQRPGQSPRRLIYKVSNRDSGVPDRFSGSGSGTDFTLKISRVEADDVGIYYCVQGTHWPPWTFGQGTKVEIK
notes: human IgG1
B10: no binding (tested: 300 nM) [1]; no binding (tested: 300 nM) (SARS-CoV-2 S1 protein); no binding (tested: 300 nM) (SARS-CoV-2 S2 protein).

B11: AB-009174 (antibody, V domains shown)
VH: QVQLQQWGAGLLKPSETLSLTCAVYGESFSGYYWNWIRQPPGKGLEWIGEIDQSGSTNYNPSLKSRVTISVDTSKNQFSLKLTSVTAADTAVYYCARVSGRMQLWLRAGYMDVWDKGTTVTVSS
VL: QSALTQPASVSGSPGQSITISCTGTSSDVGRYNYVSWYQQHPGKAPKLMIYEVSNRPSGVSNRFSGSKSGNTASLTISGLQAEDEADYYCSSYTTSSTRVFGGGTKLTVL
notes: human IgG1
B11: no binding (tested: 300 nM) [1]; no binding (tested: 300 nM) (SARS-CoV-2 S1 protein); no binding (tested: 300 nM) (SARS-CoV-2 S2 protein).

B12: AB-009106 (antibody, V domains shown)
VH: QVQLAQSGAEVKRPGASVKVSCKASGFDLTTYGVGWVRQAPGQGLEWMGWISGSSGDTHYAQQFQDRVTMTTDTPTSTAYMELRSLRSDDTAVYYCVRENIAHYGSRTFLVRYYRGMDVWGQGTTVTVAS
VL: QSALTQPASVSGSPGQSITITCTGSSSDIGGFDFVSWYQQYPGKAPKLVISEVTNRPSGVSIRFSGSKSGNTASLTISGLQAEDEADYYCSSYASSYPTTNTRVFGTGTKVTVL
notes: human IgG1
For B12, the “Optical Density (OD; 450 nm)” value [2] was 0.1 OD450.

B13: AB-009231 (antibody, V domains shown)
VH: EVQLVESGGGLVQPGGSLRLSCAASGFTFSSYWMSWVRQAPGKGLEWVANIKQDGSEKYYVDSVKGRFTISRDNAKNSLYLQMNSLRAEDTAVYYCARVSMRFLEWSFYYYYYMDVWGKGTTVTVSS
VL: SSELTQDPAVSVALGQTVRITCQGDSLRSYYASWYQQKPGQAPVLVIYGKNNRPSGIPDRFSGSSSGNTASLTITGAQAEDEADYYCNSRDSSGNHLGVVFGGGTKLTVL
notes: human IgG1
B13: no binding (tested: 300 nM) [1]; no binding (tested: 300 nM) (SARS-CoV-2 S1 protein); no binding (tested: 300 nM) (SARS-CoV-2 S2 protein).

B14: AB-009221 (antibody, V domains shown)
VH: EVQLVESGGGLVQPGGSLRLSCAASGFTVSSNYMSWVRQAPGKGLEWVSVIYSGGSTYYADSVKGRFTISRHNSKNTLYLQMNSLRAEDTAVYYCARDRNAFDIWGQGTMVIVSS
VL: DIQMTQSPSSLSASVGDRVSITCQASQDISNDLNWYQQKPGKAPKLLVYDASKLETGVPPRFSGSGSGTDFTFTISSLQPEDIATYYCQQYDNLPLYSFGQGTKLEIK
notes: human IgG1
B14: no binding (tested: 300 nM) [1]; no binding (tested: 300 nM) (SARS-CoV-2 S2 protein).
